Results from publication PMC7141649.

Biological target: actin (coated on the BLI biosensor)
Test: BLI; Octet RED, 25°C; APS biosensor coated with actin; rWLP (1 mM) in PBS pH 7.4 with 0.05% Tween 20 and 0.1% BSA; 300 s association, 120 s dissociation

Kd: 193 nM
Substance: recombinant whirlin-like protein (as used in biolayer interferometry) (natural protein)
